Results: US20250353907A1 (SHANGHAI SIMNOVA BIOTECHNOLOGY, published 2025)

Target: T1, recombinant human CD19-His (human, UniProt P15391 20-291, limits assumed)
T1 construct: This is the analyte in SPR; also called human CD19 protein; CD19 antigen protein; not shown: His tag
T1 sequence (looked up): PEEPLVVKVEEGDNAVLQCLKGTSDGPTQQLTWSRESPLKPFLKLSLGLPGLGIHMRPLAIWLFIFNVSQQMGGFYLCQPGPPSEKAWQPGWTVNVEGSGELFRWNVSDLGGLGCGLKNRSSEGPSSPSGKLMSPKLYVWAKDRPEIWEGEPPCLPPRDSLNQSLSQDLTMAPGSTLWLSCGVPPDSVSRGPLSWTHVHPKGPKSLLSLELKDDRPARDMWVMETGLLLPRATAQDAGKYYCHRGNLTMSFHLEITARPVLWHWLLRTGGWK
Experiment: SPR (Biacore), CD19-His as analyte, 1:1 Langmuir model
Method: The anti-human CD19 antibody was captured using a Protein A chip (GE Healthcare; 29-127-558).
The sample and running buffer was HBS-EP+ (10 mM HEPES, 150 mM NaCl, 3 mM EDTA, 0.05% surfactant P20) (GE Healthcare; BR-1006-69). The flow cell was set at 25° C. The sample block was set at 16° C. Both were pretreated with the running buffer. In each cycle, first, the antibody to be tested was captured using the Protein A chip, and then a single concentration of CD19 antigen protein was injected. The association and dissociation processes of the antibody with the antigen protein were recorded, and finally, the chip was regenerated using Glycine pH 1.5 (GE Healthcare; BR-1003-54). The association was determined by injecting different concentrations of recombinant human CD19-His in the solution and maintaining for 240 s, wherein the flow rate was 30 μL/min, and the protein was diluted in a 1:1 dilution ratio from 200 nM (see detailed results for actual concentrations tested) to obtain 5 concentrations in total. The dissociation phase was monitored for up to 600 s and triggered by switching from the sample solution to the running buffer. The surface was regenerated by washing with 10 mM glycine solution (pH 1.5) at a flow rate of 30 μL/min for 30 s. The difference in bulk refractive index was corrected by subtracting the responses obtained from the […]. Blank injections were also subtracted (=double reference). The Langmuir 1:1 model was used to calculate the apparent KD and other kinetic parameters.

B1: hFMC63 (humanized FMC63, hFMC63-VH1 + hFMC63-VL1) (antibody, V domains shown)
VH: EVTLKESGPVLVKPTETLTLTCTVSGFSLSDYGVSWIRQPPGKALEWLAVIWGSETTYYNSALKSRLTISKDTSKSQVVLTMTNMDPVDTATYYCAKHYYYGGSYAMDYWGQGTTVTVSS
VL: DIQMTQSPSSLSASVGDRVTITCRASQDISKYLNWYQQKPGGAVKLLIYHTSRLHSGVPSRFSGSGSGTDYTLTISSLQPEDFATYYCQQGNTLPYTFGGGTKVEIK
B1 showed a Kd of 0.0195 nM, a koff of 1.8e-06 s⁻¹ and a kon of 92400 M⁻¹ s⁻¹.
